Assay results from patent US20060286609A1 (BIOCHECK, published 2006).

Columns and labels:
Mouse Id1: Histidine = target: T1, Mouse Id1: Histidine (mouse, UniProt P20067-2 1-148); experiment: ELISA, coated antigen, Ab 2.50 ug/ml
T1 construct: E. coli fusion protein (vector pGW07); also called m-Id1-His; not shown: His-tag
T1 sequence: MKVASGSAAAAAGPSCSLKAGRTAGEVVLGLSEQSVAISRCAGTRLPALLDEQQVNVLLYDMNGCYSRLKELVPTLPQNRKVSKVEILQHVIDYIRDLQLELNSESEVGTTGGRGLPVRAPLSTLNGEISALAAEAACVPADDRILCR
Method: (§1) Incubate plates at 2-8° C. overnight (16-24 hours). [0145] 11. Shake off the BSA solution. [0146] 12. Dispense 250 μL of 2.5% sucrose solution into each well. [0147] 13. Incubate plates at 2-8° C. for 4 hours. [0148] 14. Shake off sucrose solution. [0149] 15. Dry in vacuum at room temperature overnight. Screening Method [0150] 1. Dispense 100 μL of antibody diluent, diluted rabbit polyclonal anti-Id1 into appropriate wells. […] 2. Incubate at room temperature with mechanical shaking at 750 rpm for 90 minutes. [0152] 3. Remove the incubation mixture by flicking plate content into an appropriate waste container, followed by rinsing the wells 5 times with distilled water. […] 4. Strike the wells sharply onto absorbent paper or paper towels to remove all residual water droplets. [0154] 5. Dispense 100 μL of Goat Anti-Rabbit IgG-HRP Conjugate Reagent into each well. Gently mix for 5 seconds. [0155] 6. Incubate at room temperature with mechanical shaking at 750 rpm for 90 minutes. […] 7. Repeat procedures 3 and 4. [0157] 8. Dispense 100 μL of TMB Reagent into each well. Gently mix for 5 seconds. [0158] 9. Incubate at room temperature with mechanical shaking at 750 rpm for 20 minutes. [0159] 10. Add 100 μL of Stop Solution (1N HCl) into each well. [0160] 11. Gently mix for 10 seconds to ensure a complete mixing. […] 12. Read optical density (absorbance) at 450 nm. Results from this assay were used to select the rabbit sera with the highest antibodies titer that selectively reacts with mouse Id1 or human Id1 or both.
(§2) A comparison was carried out between the reactivity of the rabbit monoclonal anti-mouse Id1, clone #BCH-1/#37-2, of this invention and the mouse monoclonal anti-mouse/human Id1 from BD Pharmingen with the following antigens prepared in Example 5: mouse Id1:His, human Id1:His, human Id2:His, human Id3:His, and GST. These antigens and protein were used to coat the wells.
(§3) Materials and methods were those described in Example 9 except (a) Pharmingen's mouse monoclonal anti-mouse Id1 was used in addition to the rabbit monoclonal anti-mouse Id1 (Example 10), and (b) goat anti-mouse IgG-HRP conjugate was used to process the wells treated with the Pharmingen monoclonal antibody and polyclonal goat anti-rabbit IgG-HRP conjugate was used to process wells treated with rabbit monoclonal anti-mouse Id1.

Human Id3: Histidine = target: T2, Human Id3: Histidine (human, UniProt Q02535 1-119, limits assumed); experiment: ELISA, coated antigen, Ab 2.50 ug/ml
T2 construct: E. coli fusion protein (vector pGW07); also called h-Id3: His; not shown: His-tag
T2 sequence (looked up): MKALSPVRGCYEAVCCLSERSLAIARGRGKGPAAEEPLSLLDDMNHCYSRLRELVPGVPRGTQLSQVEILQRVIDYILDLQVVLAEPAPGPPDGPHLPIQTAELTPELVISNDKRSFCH
Method: as §1, §2, §3

[1] = target: T3, glutathione S-transferase (GST) (UniProt P08515 1-218 = GST); experiment: ELISA, coated antigen, Ab 2.50 ug/ml
T3 construct: Coated on wells as control for the fusion partner of the immunogen
T3 sequence (P08515 whole entry, the tested form may be a part): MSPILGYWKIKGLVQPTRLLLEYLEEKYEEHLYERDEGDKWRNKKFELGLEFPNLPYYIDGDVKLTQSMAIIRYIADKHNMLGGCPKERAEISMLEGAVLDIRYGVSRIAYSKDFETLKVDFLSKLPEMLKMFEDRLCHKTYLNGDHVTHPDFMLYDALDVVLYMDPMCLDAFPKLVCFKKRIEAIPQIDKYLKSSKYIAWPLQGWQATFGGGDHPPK
Method: as §1, §2, §3

Human Id2: Histidine [2] = target: T4, Human Id2: Histidine (human, UniProt Q02363 1-134, limits assumed); experiment: ELISA, coated antigen, Ab 2.50 ug/ml
T4 construct: E. coli fusion protein (vector pGW07); also called h-Id2: His; not shown: His-tag
T4 sequence (looked up): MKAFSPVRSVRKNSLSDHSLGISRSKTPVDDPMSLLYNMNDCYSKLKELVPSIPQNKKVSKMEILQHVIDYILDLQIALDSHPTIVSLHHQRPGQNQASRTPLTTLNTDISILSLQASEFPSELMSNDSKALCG
Method: as §1, §2, §3

mouse Id1 protein = target: T5, mouse Id1 protein (mouse, UniProt P20067-2 1-148); experiment: SPR (BIACORE 2000), antibody immobilized on CM5 chip, Id-1 as analyte, 1:1 Langmuir model
T5 construct: No tag stated; Western blots: expressed in transfected HeLa cells (whole cell extract on SDS gel); IHC: endogenous in mouse mammary tumor tissue
T5 sequence: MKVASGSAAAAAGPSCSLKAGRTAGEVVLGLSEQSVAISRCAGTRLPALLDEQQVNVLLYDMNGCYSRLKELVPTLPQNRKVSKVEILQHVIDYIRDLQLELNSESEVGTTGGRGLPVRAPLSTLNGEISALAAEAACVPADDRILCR
Method: (§4) Antibodies were immobilized on CM5 sensor chips. All SPR (surface plasmon resonance) assays were carried out in a BIACORE 2000 instrument. A mouse monoclonal antibody was used as reference labeled at the 2nd channel (Fc2) of the chip. BCH-1#37-2 was immobilized on the 4th (Fc4) channel. Final conjugation of antibodies on chip surface was 1878 RU for BCH-1#37-2. Mouse Id-1 and human Id-1 were applied as mobile analytes. The binding assays were carried out in HBS-P buffer (10 mM HEPES, pH 7.4, containing 150 mM sodium chloride, 0.005% surfactant P-20 detergent and 0.12% glycerol). Kinetics were determined with 8 different analyte concentrations ranging from […] to 573 nM. For analyses, 125 μl of analyte were injected (Kinject protocol) at 30 μl/min and the dissociation lasted for 240 seconds at the same flow rate. The surface was regenerated by washing with 50 μl solution of 100 mM glycine and 100 mM of HCl, pH 1.81, at 60 μl/min and the extra cleaning protocol was followed. The kinetic analyses of sensograms were based on the Langmuir (1:1) binding model. Both association rate constant and dissociation rate constants for the interaction of mouse Id-1 and human Id-1 with the immobilized antibodies were determined from the analysis of sensograms using the Biaevaluation software, version 3.0. […]

human Id1 protein = target: T6, human Id1 protein (human, UniProt P41134 1-155); experiment: as above
T6 construct: No tag stated; Western blots: endogenous in HeLa and other human cancer cell extracts; IHC: endogenous in human mammary tumor tissue
T6 sequence: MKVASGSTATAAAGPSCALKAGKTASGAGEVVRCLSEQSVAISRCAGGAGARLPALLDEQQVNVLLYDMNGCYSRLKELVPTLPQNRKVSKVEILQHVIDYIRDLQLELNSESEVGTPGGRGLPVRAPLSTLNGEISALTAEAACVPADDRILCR
Method: as §4

[3] = target: T3, glutathione S-transferase (GST); experiment: ELISA, coated antigen, Ab 1.00 ug/ml
Method: as §1, §2, §3

Human Id2: Histidine [4] = target: T4, Human Id2: Histidine; experiment: ELISA, coated antigen, Ab 1.00 ug/ml
Method: as §1, §2, §3

B1: rabbit monoclonal anti-mouse Id1, clone #BCH-1/#37-2 (antibody, V domains shown)
VH: QSVEESGGRLVTPGTPLTLTCKVSGFDINSYAMDWFRQAPGKGLEWIGMMSTRGNTYYTSWAKGRFTISKTSSTTVDLKMTSLTTEDTATYFCARGGLWGPGTLVTVSS
VL: RVLTQTASPVSAAVGGTVTINCQASQSVYNGNRLGWYQLKPGQSPKELIHDASTLASGVPSRFRGSGSGTQFTLTINDVQCDDAATYYCVGSYACSTGDCNVFGGGTEVVVK
notes: Rabbit IgG from hybridoma, Protein G purified; also called m Id1 MoAb 37-2; Rabbit Monoclonal Anti-Mouse Id1 (#37-2)
- A450 (Mouse Id1: Histidine): 3.16 A450
- A450 (Human Id3: Histidine): 0.069 A450
- A450 [1]: 0.068 A450
- A450 (Human Id2: Histidine [2]): 0.07 A450
- Ka (mouse Id1 protein): 2.9e+11 M⁻¹
- Ka (human Id1 protein): 2.9e+09 M⁻¹
- A450 [3]: 0.062 A450
- A450 (Human Id2: Histidine [4]): 0.053 A450
